The chains are these.
B1: Zyxin (Homo sapiens), Q15942 (parent)
chain: MAAPRPSPAISVSVSAPAFYAPQKKFGPVVAPKPKVNPFRPGDSEPPPAPGAQRAQMGRVGEIPPPPPEDFPLPPPPLAGDGDDAEGALGGAFPPPPPPIEESFPPAPLEEEIFPSPPPPPEEEGGPEAPIPPPPQPREKVSSIDLEIDSLSSLLDDMTKNDPFKARVSSGYVPPPVATPFSSKSSTKPAAGGTAPLPPWKSPSSSQPLPQVPAPAQSQTQFHVQPQPQPKPQVQLHVQSQTQPVSLANTQPRGPPASSPAPAPKFSPVTPKFTPVASKFSPGAPGGSGSQPNQKLGHPEALSAGTGSPQPPSFTYAQQREKPRVQEKQHPVPPPAQNQNQVRSPGAPGPLTLKEVEELEQLTQQLMQDMEHPQRQNVAVNELCGRCHQPLARAQPAVRALGQLFHIACFTCHQCAQQLQGQQFYSLEGAPYCEGCYTDTLEKCNTCGEPITDRMLRATGKAYHPHCFTCVVCARPLEGTSFIVDQANRPHCVPDYHKQYAPRCSVCSEPIMPEPGRDETVRVVALDKNFHMKCYKCEDCGKPLSIEADDNGCFPLDGHVLCRKCHTARAQT

The variants in this test derive from B1. The conditions noted are these: with actn1_human ACTN1, P12814.
Chain of actn1_human ACTN1, P12814 (P12814 whole entry): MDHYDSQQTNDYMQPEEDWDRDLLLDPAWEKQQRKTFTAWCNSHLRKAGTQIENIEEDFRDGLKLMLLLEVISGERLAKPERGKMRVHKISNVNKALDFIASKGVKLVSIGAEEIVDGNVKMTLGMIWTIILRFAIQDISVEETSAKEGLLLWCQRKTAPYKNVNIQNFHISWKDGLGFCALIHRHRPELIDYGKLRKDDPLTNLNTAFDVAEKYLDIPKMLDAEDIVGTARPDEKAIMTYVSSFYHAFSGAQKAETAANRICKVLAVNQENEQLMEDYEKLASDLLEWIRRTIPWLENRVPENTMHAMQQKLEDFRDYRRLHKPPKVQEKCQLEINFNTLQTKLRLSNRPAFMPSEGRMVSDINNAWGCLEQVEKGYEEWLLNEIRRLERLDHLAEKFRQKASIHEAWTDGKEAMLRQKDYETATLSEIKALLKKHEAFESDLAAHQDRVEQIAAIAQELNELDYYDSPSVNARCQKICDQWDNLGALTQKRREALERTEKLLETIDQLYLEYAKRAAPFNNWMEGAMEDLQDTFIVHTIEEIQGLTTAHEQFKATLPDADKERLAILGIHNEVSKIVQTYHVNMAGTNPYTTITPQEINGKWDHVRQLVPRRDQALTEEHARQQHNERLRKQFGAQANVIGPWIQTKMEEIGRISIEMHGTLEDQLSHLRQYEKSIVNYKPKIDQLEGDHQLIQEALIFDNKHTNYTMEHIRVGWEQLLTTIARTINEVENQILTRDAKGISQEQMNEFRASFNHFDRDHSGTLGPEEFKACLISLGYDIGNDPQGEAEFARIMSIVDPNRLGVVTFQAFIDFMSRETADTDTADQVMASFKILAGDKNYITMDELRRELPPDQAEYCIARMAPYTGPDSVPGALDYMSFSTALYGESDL
In the case of A31S, the “effect of a mutation on the interaction” value was “decreasing interaction”. As for F39S, the entry is “increasing interaction”. In the case of V29S it was “decreasing interaction”. Take F26S: the “effect of a mutation on the interaction” value was “decreasing interaction”.
